Test results taken from PMC2141705.

Target: calnexin (mouse (endogenous in AtT-20)) (UniProt P35564)
Test: co-IP

Chain of UniProt P35564 (P35564 21-591): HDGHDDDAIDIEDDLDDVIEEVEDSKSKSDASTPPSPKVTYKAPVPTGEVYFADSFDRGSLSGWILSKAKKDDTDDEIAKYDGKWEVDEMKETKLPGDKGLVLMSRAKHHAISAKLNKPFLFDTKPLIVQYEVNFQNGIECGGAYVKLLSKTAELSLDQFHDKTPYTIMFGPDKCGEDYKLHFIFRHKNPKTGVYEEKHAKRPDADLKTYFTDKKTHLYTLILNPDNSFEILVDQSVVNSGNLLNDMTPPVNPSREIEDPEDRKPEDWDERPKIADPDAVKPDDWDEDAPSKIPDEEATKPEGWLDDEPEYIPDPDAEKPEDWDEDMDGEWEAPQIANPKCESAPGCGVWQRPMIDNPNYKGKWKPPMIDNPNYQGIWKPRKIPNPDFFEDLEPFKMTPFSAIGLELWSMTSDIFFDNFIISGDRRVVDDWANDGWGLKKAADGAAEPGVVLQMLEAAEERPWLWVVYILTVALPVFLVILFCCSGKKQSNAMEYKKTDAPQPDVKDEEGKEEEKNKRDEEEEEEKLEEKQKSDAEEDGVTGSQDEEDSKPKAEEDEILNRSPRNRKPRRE

For “proPC2 (proenzyme form of prohormone convertase 2) (from UniProt P28841 25-637)”, the percent of total radiolabeled proPC2 coimmunoprecipitated was 5%.
